The text below walks through data of article PMC7580981.

pKd: −log10 of the molar value.

In this assay the target is IBV polymerase trimeric complex (Pol3): PA-His, PB1, PB2 (influenza B virus). The experiment in a line: SPR; Biacore T200; […]; running buffer HBS-EP+; 1:1 fit model. A general note: SPR reads the build-up and loss of mass on a sensor chip optically.

Chain of human ANP32A, purified (GST cleaved) (P39687 whole entry): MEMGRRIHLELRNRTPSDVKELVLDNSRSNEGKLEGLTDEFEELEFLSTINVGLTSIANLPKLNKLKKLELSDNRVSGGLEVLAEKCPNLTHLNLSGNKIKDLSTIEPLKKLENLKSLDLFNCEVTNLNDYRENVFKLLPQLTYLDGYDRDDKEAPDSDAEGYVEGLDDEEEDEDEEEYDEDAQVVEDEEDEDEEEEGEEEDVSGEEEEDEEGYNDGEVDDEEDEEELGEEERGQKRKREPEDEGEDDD

“human ANP32A with the 33-amino-acid insert, purified (GST cleaved)”: the pKd was 6.99.

In turn, “chicken ANP32A, purified (GST cleaved) (natural protein)” came in with a KD of chANP32A relative to that of huANP32A (fold) of 3 fold.

“human ANP32A, purified (GST cleaved) (from UniProt P39687 1-249) (natural protein)”: the pKd is 7.27; the ka relative to chANP32A and huANP32A+33 (fold) was found to be 2 fold.

By pKd is commonly meant the Kd on a negative log10 scale, so that one unit is a factor of ten. Read a low pKd as a large Kd.
